# Patent US20100092974A1, “METHODS FOR SCREENING FOR MODULATORS OF CCRL2” (The Board of Trustees of the Leland Stanford Junior …, priority 2008, published 2010)
# How the values were obtained:
# mCMKLR1 = biological target: T1, mCMKLR1 (Mus musculus, UniProt P97468); test: immunofluorescence-based chemerin-binding assay, mCMKLR1-HA L1.2; conditions: 10 nM His8-tagged chemerin, anti-His6 PE
# T1 construct: expressed in transfected cells; host or cells: L1.2 mouse pre-B lymphoma cells
# T1 sequence (P97468 1-371): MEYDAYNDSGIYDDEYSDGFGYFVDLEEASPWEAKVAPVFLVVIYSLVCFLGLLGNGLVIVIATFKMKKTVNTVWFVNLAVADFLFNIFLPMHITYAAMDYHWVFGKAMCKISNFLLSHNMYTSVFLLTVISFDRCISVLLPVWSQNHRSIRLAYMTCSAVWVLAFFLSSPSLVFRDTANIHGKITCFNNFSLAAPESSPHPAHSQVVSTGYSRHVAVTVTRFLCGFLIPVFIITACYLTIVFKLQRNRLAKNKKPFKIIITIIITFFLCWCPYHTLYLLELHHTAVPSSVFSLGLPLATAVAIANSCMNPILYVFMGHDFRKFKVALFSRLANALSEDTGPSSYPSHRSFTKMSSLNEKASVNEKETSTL
# mCRTH2 = biological target: T2, mCRTH2 (Mus musculus, UniProt Q9Z2J6); test: immunofluorescence-based chemerin-binding assay, mCRTH2-HA L1.2; conditions: 10 nM His8-tagged chemerin, anti-His6 PE
# T2 construct: The coding regions of mCCRL2, huCCRL2, mCRTH2, and huCCR10 were amplified from genomic DNA; expressed in transfected cells
# T2 sequence (Q9Z2J6 1-382): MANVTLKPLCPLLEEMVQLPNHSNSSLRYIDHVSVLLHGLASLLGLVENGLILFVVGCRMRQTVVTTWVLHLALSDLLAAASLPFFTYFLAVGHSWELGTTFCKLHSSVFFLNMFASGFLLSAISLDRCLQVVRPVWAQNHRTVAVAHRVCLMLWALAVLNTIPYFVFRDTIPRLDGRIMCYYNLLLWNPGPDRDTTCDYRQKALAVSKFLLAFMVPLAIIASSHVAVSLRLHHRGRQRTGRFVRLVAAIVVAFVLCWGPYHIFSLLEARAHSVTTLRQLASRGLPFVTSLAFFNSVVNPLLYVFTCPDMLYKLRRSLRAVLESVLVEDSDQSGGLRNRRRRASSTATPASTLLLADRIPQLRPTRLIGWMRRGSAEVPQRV
# mCCRL2 = biological target: T3, mCCRL2 (Mus musculus, UniProt O35457); test: intracellular calcium mobilization, CCRL2/HEK293 transfectants; type: cell-based; conditions: HEK293 background, alone or in combination
# T3 construct: The coding regions of mCCRL2, huCCRL2, mCRTH2, and huCCR10 were amplified from genomic DNA; expressed in transfected cells
# T3 sequence (O35457 1-360): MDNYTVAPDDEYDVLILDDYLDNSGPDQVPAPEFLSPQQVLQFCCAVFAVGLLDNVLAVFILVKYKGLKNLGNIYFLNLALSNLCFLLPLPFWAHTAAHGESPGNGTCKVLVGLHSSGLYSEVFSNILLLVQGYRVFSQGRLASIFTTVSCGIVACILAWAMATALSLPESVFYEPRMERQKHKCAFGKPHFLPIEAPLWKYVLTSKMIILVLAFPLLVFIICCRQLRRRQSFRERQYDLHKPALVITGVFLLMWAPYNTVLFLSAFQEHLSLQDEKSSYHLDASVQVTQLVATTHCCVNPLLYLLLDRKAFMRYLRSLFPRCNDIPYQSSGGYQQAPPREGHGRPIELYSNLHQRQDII
# Protocol: Chemoattractant-stimulated Ca^2+-mobilization was performed following Alliance for Cell Signaling protocol ID PP00000210. Cells (3×10^6/mL) were loaded with 4 μM Fluo4-AM and 0.16% Pluronic acid F-127 (Molecular Probes) in modified Iscove's medium (Iscove's medium with 1% heat inactivated bovine calf serum and 2 mM L-glutamine, Invitrogen) for 30 minutes at 37° C. The samples were mixed every 10 minutes during loading, washed once, resuspended at up to 2×10^6/mL in the same buffer, and allowed to rest in the dark for 30 minutes at room temperature. Chemoattractant-stimulated change in Ca^2+-sensitive fluorescence of Fluo-4 was measured over real-time with a FACsScan flow cytometer and CellQuest software (BD Biosciences) at room temperature under constant stirring (500 rpm). Fluorescent data were acquired continuously up to 1024 seconds at 1-second intervals. The samples were analyzed for 45 seconds to establish basal state, removed from the nozzle to add the stimuli, and then returned to the nozzle. Mean channel fluorescence over time was analyzed with FlowJo (TreeStar, Ashland, Oreg., USA) software. […] 500 μl of these chemerin-loaded cells were added to mCMKLR1/L1.2 cells loaded with Fluo4-AM, and calcium mobilization was evaluated.
# huCCRL2 [1] = biological target: T4, huCCRL2 (Homo sapiens, UniProt O00421); test: in vitro transwell chemotaxis, huCCRL2-HA/L1.2 transfectants; type: cell-based; conditions: range of doses; CXCL12 and CCL19 act via endogenous CXCR4 and CCR7
# T4 construct: The coding regions of mCCRL2, huCCRL2, mCRTH2, and huCCR10 were amplified from genomic DNA; expressed in transfected cells
# T4 sequence (O00421 1-344): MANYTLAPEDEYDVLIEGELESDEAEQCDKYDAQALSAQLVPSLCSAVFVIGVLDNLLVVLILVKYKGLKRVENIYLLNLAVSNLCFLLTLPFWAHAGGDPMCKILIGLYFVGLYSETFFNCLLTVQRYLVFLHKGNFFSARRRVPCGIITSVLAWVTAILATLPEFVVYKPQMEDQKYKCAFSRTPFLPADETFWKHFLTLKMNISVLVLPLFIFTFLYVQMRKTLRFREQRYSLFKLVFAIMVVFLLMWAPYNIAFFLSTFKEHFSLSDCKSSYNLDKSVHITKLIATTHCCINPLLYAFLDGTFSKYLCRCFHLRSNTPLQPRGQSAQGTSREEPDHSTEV
# Protocol: For migration experiments using cell lines, 2.5×10^5 cells/100 μl chemotaxis media (RPMI+10% fetal calf serum) were added to the top wells of 5-um pore transwell inserts (Costar, Corning, N.Y., USA), and test samples in 600 μl media were added to the bottom wells. After incubating the transwell plates for 1.5 hours at 37° C., the bottom wells were harvested and flow cytometry was used to assess migration. For primary cell chemotaxis, 1×10^6 cells/100 μl were added to the top well, and, following a 2 hour incubation at 37° C., polystyrene beads (15.0 μm diameter, Polysciences, Warrington, Pa., USA) were added to each well to facilitate normalization of the cell count. The cells were then stained for c-kit, F4/80, and/or CD11b expression and analyzed by flow cytometry. A ratio was generated and percent input migration was calculated.
# huCCRL2 [2] = biological target: T4, huCCRL2; test: immunofluorescence-based chemerin-binding assay, huCCRL2-HA L1.2; conditions: read-out: EC50, untagged chemerin vs His8-tagged chemerin binding; 10 nM His8-tagged serum form chemerin, 30 min on ice, anti-His6 PE
substance,measurement,setting,value
"chemerin: protein ligand for signaling receptor CMKLR1; serum form human chemerin expressed in baculovirus-infected insect cells, His8-tag removed",chemerin binding,mCMKLR1,unable to detect
same,chemerin binding,mCRTH2,did not bind
same,"agonism, intracellular calcium mobilization",mCCRL2,neither CCL2 nor chemerin functioned as agonists
same,transwell migration,huCCRL2 [1],neither human nor mouse CCRL2-HA/L1.2 transfectants migrated
same,EC50,huCCRL2 [2],7 nM
